Measured values from patent US9732120B2, “Self-assembled peptide nanostructures by exploiting conformational change, biosensor using the same and detection method of biomolecules using the same” (INDUSTRY-ACADEMIC COOPERATION FOUNDATION, YONSEI UNIVERSITY, priority 2014, dated 2017).
No end group written: not given here. *: point of attachment. Butanoyl(4-pyren-1-yl) = O=C(CCCc1ccc2ccc3cccc4ccc1c2c34)*

Legend:
Assay type in all cases: physicochemical
[1] = Circular dichroism (CD) spectroscopy of the amphiphilic peptide depending on ionic strength and pH; conditions: for [θ]222/[θ]208 (degree of α-helix stabilization): 4° C., 1 μM peptide
Protocol: Circular dichroism (CD) spectroscopic analysis was performed as follows in order to investigate the dependence of the conformation of the amphiphilic peptide prepared in Preparation Example on ionic strength.
CD spectra were recorded using the Chirascan circular dichroism spectrometer equipped with a Peltier thermostat. The spectra were recorded between 260 nm and 190 nm using a 2-mm path cuvette. 10 scans were averaged. Also, molar ellipticity per amino acid residue was calculated. The peptide concentration was 1 μM unless specified otherwise and the sample solution incubated at least for a day before the measurement.
In the graph, ∘ indicates the peptide dissolved in water, and • indicates the peptide dissolved in 150 mM KF. In Test Example 1, the measurement of the samples was measured at 4° C.

[2] = Atomic force microscopy (AFM) of the amphiphilic peptide
Protocol: The amphiphilic peptide prepared in Preparation Example was subjected to atomic force microscopic (AFM) measurement. Atomic force microscopic scanning was made at 1.2-1.5 V with 0.5 Hz. The result is shown in FIGS. 15a-15b and FIGS. 16a-16b.
FIGS. 15a and 15b show atomic force microscopic (AFM) images of 2.5 μM of the amphiphilic peptide dissolved in water. FIG. 15a is a height image and FIG. 15b is a phase image.
FIGS. 16a and 16b show atomic force microscopic (AFM) images of 1 μM of the amphiphilic peptide dissolved in a 150 mM KF solution. FIG. 16a is a height image and FIG. 16b is a phase image.

[3] = Fluorescence spectroscopy of the amphiphilic peptide in water or 150 mM KF (pyrene excimer); conditions: 0.25-20 μM peptide
Protocol: The amphiphilic peptide prepared in Preparation Example was subjected to fluorescence spectroscopic measurement after dissolving in water or a 150 mM KF solution. Details are as follows.
Fluorescence spectra were measured using the LS55 fluorescence spectrometer (PerkinElmer). Pyrene was excited at 341 nm and the emission spectra were recorded in the range of 360-550 nm. The solid (-) curve indicates the amphiphilic peptide dissolved in 150 mM KF and the dotted ( . . . ) curve indicates the amphiphilic peptide dissolved in water.
Also, emission spectra were measured after dissolving 0.25-20 μM of the amphiphilic peptide prepared in Preparation Example in water (a) or a KF solution (b).

## amphiphilic peptide prepared in Preparation Example: hairpin-shaped amphiphilic peptide derived from HIV-1 rev protein (Rev12-64) with a pyrene group bound to the N-terminal via pyrenebutyric acid ({Butanoyl(4-pyren-1-yl)}-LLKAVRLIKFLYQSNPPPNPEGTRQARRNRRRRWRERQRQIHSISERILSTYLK)
[1]; 150 mM KF (increased ionic strength)
  [θ]222/[θ]208 (degree of α-helix stabilization): 0.71
[1]; CD analysis, FIG. 12
  solubility depending on pH: solubility decreases gradually as the pH increases
[1]; in water
  [θ]222/[θ]208 (degree of α-helix stabilization): 0.31
[2]; 1 μM peptide in 150 mM KF, AFM
  particle diameter of globular nanostructures: 20-50 nm
[2]; 2.5 μM peptide in water
  state of the peptide by AFM: exists mostly in monomer form
[3]; dissolved in pure water
  excimer peak of pyrene (self-assembly): no excimer peak of pyrene was observed
[3]; ionic strength 150 mM (KF)
  excimer peak of pyrene (self-assembly): the excimer peak of pyrene was observed
